Test results as given in patent US4608364A, “Pharmaceutical agent for the treatment of diabetes mellitus” (Hoechst Aktiengesellschaft, priority 1983, dated 1986).

Tests used:
[1] = Biological activity of insulins and insulin derivatives; settings: specific activity of the active compound used in the formulation
[2] = unmodified hormone, background statement; region of maximum insolubility; cited from earlier work
[3] = based on the amount of protein; cited from earlier work

| Substance | biological activity per mg [1] [IU/mg] | isoelectric point [2] | inherent biological activity as fraction of the activity of insulin [3] |
| --- | --- | --- | --- |
| Porcine proinsulin: porcine proinsulin, dissolved component of Example 2 | 3.3 |  |  |
| insulin [reference compound] |  | 5.4 |  |
| proinsulin: naturally occurring precursor of insulin, A and B chain linked by the C peptide |  | 5.4 | about 1/8 |
